Bridges are numbered along the chain shown (N, C = ends). [ ]: non-standard residue; d: D form. Phe(3,4-(OMe)2) = COc1ccc(C[C@H](N)C(=O)O)cc1OC; Phe(4-CF3) = N[C@@H](Cc1ccc(C(F)(F)F)cc1)C(=O)O; 2Nal = N[C@@H](Cc1ccc2ccccc2c1)C(=O)O; Ala(cPent) = N[C@@H](CC1CCCC1)C(=O)O; AEF = NCCOc1ccc(C[C@H](N)C(=O)O)cc1; Cav = NC(N)=NOCC[C@H](N)C(=O)O; hLeu = CC(C)CC[C@H](N)C(=O)O; αMeK = C[C@](N)(CCCCN)C(=O)O; Orn = NCCC[C@H](N)C(=O)O; Abu = CC[C@H](N)C(=O)O; PEG1 = NCCOCCC(=O)O; AEA = NCCOCC(=O)O
T1: IL23R_huFC (human, UniProt Q5VWK5 24-353)
T1 sequence (looked up): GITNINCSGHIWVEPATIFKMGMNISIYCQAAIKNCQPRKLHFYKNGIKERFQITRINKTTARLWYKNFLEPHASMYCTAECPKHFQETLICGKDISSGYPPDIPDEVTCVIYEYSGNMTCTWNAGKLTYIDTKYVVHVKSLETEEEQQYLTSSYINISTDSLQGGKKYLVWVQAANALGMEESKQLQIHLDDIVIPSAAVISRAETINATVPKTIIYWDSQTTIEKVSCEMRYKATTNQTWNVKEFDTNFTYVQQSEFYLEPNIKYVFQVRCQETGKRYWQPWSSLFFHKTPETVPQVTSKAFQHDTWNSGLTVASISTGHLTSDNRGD

T2: IL23R_huFC (human, UniProt Q5VWK5 24-353)
T2 sequence (looked up): T1 sequence (looked up)

B1: Ac-CQTWQCYWRTNG-[AEA]-[(D)-Lys]-NH2 (peptide)
peptide: Ac-CQTWQCYWRTNG[AEA][dK]-NH2
modifications: disulfide 1-6
SMILES: CC(=O)N[C@H]1CSSC[C@@H](C(=O)N[C@@H](Cc2ccc(O)cc2)C(=O)N[C@@H](Cc2c[nH]c3ccccc23)C(=O)N[C@@H](CCCNC(=N)N)C(=O)N[C@H](C(=O)N[C@@H](CC(N)=O)C(=O)NCC(=O)NCCOCC(=O)N[C@H](CCCCN)C(N)=O)[C@@H](C)O)NC(=O)[C@H](CCC(N)=O)NC(=O)[C@H](Cc2c[nH]c3ccccc23)NC(=O)[C@H]([C@@H](C)O)NC(=O)[C@H](CCC(N)=O)NC1=O
B2: Ac-CRDWQCYWHKFG-[AEP]-[(D)Lys]-OH (peptide)
peptide: Ac-CRDWQCYWHKFG[PEG1][dK]-OH
modifications: disulfide 1-6
SMILES: CC(=O)N[C@H]1CSSC[C@@H](C(=O)N[C@@H](Cc2ccc(O)cc2)C(=O)N[C@@H](Cc2c[nH]c3ccccc23)C(=O)N[C@@H](Cc2c[nH]cn2)C(=O)N[C@@H](CCCCN)C(=O)N[C@@H](Cc2ccccc2)C(=O)NCC(=O)NCCOCCC(=O)N[C@H](CCCCN)C(=O)O)NC(=O)[C@H](CCC(N)=O)NC(=O)[C@H](Cc2c[nH]c3ccccc23)NC(=O)[C@H](CC(=O)O)NC(=O)[C@H](CCCNC(=N)N)NC1=O
B3: Ac-CQTWVCYWRENG-[AEA]-[(D)-Lys]-NH2 (peptide)
peptide: Ac-CQTWVCYWRENG[AEA][dK]-NH2
modifications: disulfide 1-6
SMILES: CC(=O)N[C@H]1CSSC[C@@H](C(=O)N[C@@H](Cc2ccc(O)cc2)C(=O)N[C@@H](Cc2c[nH]c3ccccc23)C(=O)N[C@@H](CCCNC(=N)N)C(=O)N[C@@H](CCC(=O)O)C(=O)N[C@@H](CC(N)=O)C(=O)NCC(=O)NCCOCC(=O)N[C@H](CCCCN)C(N)=O)NC(=O)[C@H](C(C)C)NC(=O)[C@H](Cc2c[nH]c3ccccc23)NC(=O)[C@H]([C@@H](C)O)NC(=O)[C@H](CCC(N)=O)NC1=O
B4: Ac-CQTWVCYWRENG-[AEA]-[(D)-Lys]-NH2 (peptide)
peptide: Ac-CQTWVCYWRENG[AEA][dK]-NH2
modifications: disulfide 1-6
SMILES: CC(=O)N[C@H]1CSSC[C@@H](C(=O)N[C@@H](Cc2ccc(O)cc2)C(=O)N[C@@H](Cc2c[nH]c3ccccc23)C(=O)N[C@@H](CCCNC(=N)N)C(=O)N[C@@H](CCC(=O)O)C(=O)N[C@@H](CC(N)=O)C(=O)NCC(=O)NCCOCC(=O)N[C@H](CCCCN)C(N)=O)NC(=O)[C@H](C(C)C)NC(=O)[C@H](Cc2c[nH]c3ccccc23)NC(=O)[C@H]([C@@H](C)O)NC(=O)[C@H](CCC(N)=O)NC1=O
B5: Ac-CQTWQCYWR-[Orn]-NG-[AEA]-[(D)-Lys]-NH2 (peptide)
peptide: Ac-CQTWQCYWR[Orn]NG[AEA][dK]-NH2
modifications: disulfide 1-6
SMILES: CC(=O)N[C@H]1CSSC[C@@H](C(=O)N[C@@H](Cc2ccc(O)cc2)C(=O)N[C@@H](Cc2c[nH]c3ccccc23)C(=O)N[C@@H](CCCNC(=N)N)C(=O)N[C@@H](CCCN)C(=O)N[C@@H](CC(N)=O)C(=O)NCC(=O)NCCOCC(=O)N[C@H](CCCCN)C(N)=O)NC(=O)[C@H](CCC(N)=O)NC(=O)[C@H](Cc2c[nH]c3ccccc23)NC(=O)[C@H]([C@@H](C)O)NC(=O)[C@H](CCC(N)=O)NC1=O

Legend:
IL23R_huFC [1] = biological target: T1, IL23R_huFC; assay: IL23-IL23R competitive ELISA
IL23R_huFC [2] = biological target: T2, IL23R_huFC; assay: human ELISA vs IL-23

Row | Binder | IC50 (IL23R_huFC [1]) [µM] | IC50 (IL23R_huFC [2]) [µM]
1 | Ac-CQTWECYWHLYG-NH2 (disulfide 1-6 (inferred)) [Ac-CQTWECYWHLYG-NH2] | < 0.5 | 
2 | B1 | < 0.5 | 
3 | Ac-CRTWQCYWRKFG[AEA][dK]-NH2 (disulfide 1-6 (inferred)) [Ac-CRTWQCYWRKFG-[AEA]-[(D)-Lys]-NH2] | < 0.5 | 
4 | B2 | < 0.5 | 
5 | B3 | < 0.5 | 
6 | B4 | < 0.5 | 
7 | Ac-CRTWECYWHEYG-NH2 (disulfide 1-6 (inferred)) [Ac-CRTWECYWHEYG-NH2] | < 0.5 | 
8 | Ac-CATWQCYWHEYG-NH2 (disulfide 1-6 (inferred)) [Ac-CATWQCYWHEYG-NH2] | < 0.5 | 
9 | Ac-CTTWECYWHQFG-NH2 (disulfide 1-6 (inferred)) [Ac-CTTWECYWHQFG-NH2] | < 0.5 | 
10 | Ac-CRTWQCYWHEYG-NH2 (disulfide 1-6 (inferred)) [Ac-CRTWQCYWHEYG-NH2] | < 0.5 | 
11 | Ac-CTTWECYWHEYG-NH2 (disulfide 1-6 (inferred)) [Ac-CTTWECYWHEYG-NH2] | < 0.5 | 
12 | Ac-CRTWECYWHEFG-NH2 (disulfide 1-6 (inferred)) [Ac-CRTWECYWHEFG-NH2] | < 0.5 | 
13 | Ac-CTTWECYWHEFG-NH2 (disulfide 1-6 (inferred)) [Ac-CTTWECYWHEFG-NH2] | < 0.5 | 
14 | H-CRDWQCYWHKFG-NH2 (disulfide 1-6 (inferred)) [Hy-CRDWQCYWHKFG-NH2] | < 0.5 | 
15 | Ac-CADWVCYWHTFGAA[dK]-OH (disulfide 1-6 (inferred)) [Ac-CADWVCYWHTFGAA[(D)Lys]-OH] | < 0.5 | 
16 | Ac-CQTWQCYWRENG-NH2 (disulfide 1-6 (inferred)) [Ac-CQTWQCYWRENG-NH2] | < 0.5 | 
17 | Ac-CQTWQCYW[hLeu]ENG-NH2 (disulfide 1-6 (inferred)) [Ac-CQTWQCYW[-hLeu]-ENG-NH2] | < 0.5 | 
18 | Ac-CQTWQCYWRK(Ac)NG-NH2 (disulfide 1-6 (inferred)) [Ac-CQTWQCYWR-[K-Ac]-NG-NH2] | < 0.5 | 
19 | Ac-CQTWQCYWLENG-NH2 (disulfide 1-6 (inferred)) [Ac-CQTWQCYWLENG-NH2] | < 0.5 | 
20 | Ac-CTTWTCYWHQYG-NH2 (disulfide 1-6 (inferred)) [Ac-CTTWTCYWHQYG-NH2] | < 0.5 | 
21 | H-CSNWVCYWHTYG-NH2 (disulfide 1-6 (inferred)) [Hy-CSNWVCYWHTYG-NH2] | < 0.5 | 

Row | Binder | IC50 (IL23R_huFC [1]) [µM] | IC50 (IL23R_huFC [2]) [µM]
22 | Ac-CADWVCYWHRHADRVK-NH2 (disulfide 1-6 (inferred)) [Ac-CADWVCYWHRHADRVK-NH2] | < 0.5 | 
23 | CQTWQCYWRXNGXK (Ac-; [Dapa]; [AEA]; [(D)-Lys]; -NH2; disulfide) [Ac-CQTWQCYWR-[Dapa]-NG-[AEA]-[(D)-Lys]-NH2] | < 0.5 | 
24 | B5 | < 0.5 | 
25 | Ac-CADWVCYWHTFGER-NH2 (disulfide 1-6 (inferred)) [Ac-CADWVCYWHTFGER-NH2] | < 0.5 | 
26 | Ac-CADWVCYWHTHGER-NH2 (disulfide 1-6 (inferred)) [Ac-CADWVCYWHTHGER-NH2] | < 0.5 | 
27 | Ac-CQTWQCYW[Cav]ENG-NH2 (disulfide 1-6 (inferred)) [Ac-CQTWQCYW-[Cav]-ENG-NH2] | < 0.5 | 
28 | Ac-CKTWTCYWHEFG-NH2 (disulfide 1-6 (inferred)) [Ac-CKTWTCYWHEFG-NH2] | < 0.5 | 
29 | CADWVCYWHTFGAK (Ac-; [β-Ala]; [(D)Lys]; disulfide) [Ac-CADWVCYWHTFG-[β-Ala]-[(D)Lys]-OH] | < 0.5 | 
30 | Ac-CADWVCYWHTFGP[dK]-OH (disulfide 1-6 (inferred)) [Ac-CADWVCYWHTFGP-[(D)Lys]-OH] | < 0.5 | 
31 | Ac-CADWVCYWHTFGA[dK]-OH (disulfide 1-6 (inferred)) [Ac-CADWVCYWHTFGA-[(D)Lys]-OH] | < 0.5 | 
32 | Ac-CADWVCYWHTYG-NH2 (disulfide 1-6 (inferred)) [Ac-CADWVCYWHTYG-NH2] | < 0.5 | 
33 | Ac-CTDWVCYWHTFG-NH2 (disulfide 1-6 (inferred)) [Ac-CTDWVCYWHTFG-NH2] | < 0.5 | 
34 | Ac-CQTWQCYW[Ala(cPent)]ENG-NH2 (disulfide 1-6 (inferred)) [Ac-CQTWQCYW-[Cpa]-ENG-NH2] | < 0.5 | 
35 | H-CRTWQCYWRKFG-NH2 (disulfide 1-6 (inferred)) [Hy-CRTWQCYWRKFG-NH2] | < 0.5 | 
36 | Ac-[Abu]QT[Phe(3,4-(OMe)2)]QC[AEF][2Nal][αMeK]ENG-NH2 (thioether 1-6) [Ac-Cyclo-[[Abu]-QT-[Phe(3,4-OMe)]-QC]-[Phe[4-(2-aminoethoxy)]]-[2-Nal]-[α-MeLys]-ENG-NH2] |  | ~3
37 | Ac-[Abu]QT[Phe(4-CF3)]QC[AEF][2Nal][αMeK]ENG-NH2 (thioether 1-6) [Ac-Cyclo-[[Abu]-QT-[Phe(4-CF3)]-QC]-[Phe[4-(2-aminoethoxy)]]-[2-Nal]-[α-MeLys]-ENG-NH2] |  | ~3
38 | Ac-CRTWECYWHEQS-NH2 (disulfide 1-6 (inferred)) [Ac-CRTWECYWHEQS-NH2] | < 0.5 | 
39 | Ac-DTPRCRTWECYWHTFG-NH2 (disulfide 5-10 (inferred)) [Ac-DTPRCRTWECYWHTFG-NH2] | < 0.5 | 
40 | Ac-CADWVCYWHTFG-OH (disulfide 1-6 (inferred)) [Ac-CADWVCYWHTFG-OH] | < 0.5 | 
41 | Ac-CEDWKCYWHKYG-NH2 (disulfide 1-6 (inferred)) [Ac-CEDWKCYWHKYG-NH2] | < 0.5 | 
